Measured values as given in patent publication US20180299467A1.

Columns and labels:
[1] = target: F-actin; assay: co-sedimentation with F-actin in the presence of TM, densitometry of pellet (FIG. 3C)
[2] = test system: F-actin
[3] = test system: citrullinated F-actin (treated with PAD2)

Row | Substance | percent of TnI present in the pellet [1] [%] | actomyosin HMM-ATPase activity [2] [nmol Pi] | decrease in actomyosin HMM-ATPase activity against non-citrullinated HMM [2] | actomyosin HMM-ATPase activity (rate of ATP hydrolysis) [3] [nmol Pi] | increase in actomyosin HMM-ATPase rate against unmodified F-actin [3]
1 | cardiac troponin I (TnI), non-citrullinated | > 95 |  |  |  | 
2 | citrullinated cardiac troponin I (TnI treated with PAD2) | > 95 |  |  |  | 
3 | citrullinated heavy meromyosin (HMM treated with PAD2) |  | 0.22±0.002 | corresponding to 30% decrease in the enzyme activity | 0.368±0.005 | 
4 | heavy meromyosin (HMM), non-citrullinated |  | 0.32±0.01 |  |  | increased actomyosin HMM-ATPase rate by 55% compared to the unmodified F-actin
